Molecular target: T1, Wild-type EGFR-GFP (UniProt P00533 25-1210)
T1 construct: whole, on cells; not shown: GFP fusion
Test: co-localization by confocal and 3D-SIM microscopy, co-overexpression in CL1-5 cells (FIG. 1C)
Source text: FIGS. 1A-1C show interaction between PINK1 and EGFR in lung adenocarcinoma cells. […] 3D-structured illumination microscopy images specifically disclosed the interaction beneath the cytoplasmic membrane (III and IV).

B1: myc-fused full-length PINK1 construct (amino acids 1-581) (enzyme)
chain: MAVRQALGRGLQLGRALLLRFTGKPGRAYGLGRPGPAAGCVRGERPGWAAGPGAEPRRVGLGLPNRLRFFRQSVAGLAARLQRQFVVRAWGCAGPCGRAVFLAFGLGLGLIEEKQAESRRAVSACQEIQAIFTQKSKPGPDPLDTRRLQGFRLEEYLIGQSIGKGCSAAVYEATMPTLPQNLEVTKSTGLLPGRGPGTSAPGEGQERAPGAPAFPLAIKMMWNISAGSSSEAILNTMSQELVPASRVALAGEYGAVTYRKSKRGPKQLAPHPNIIRVLRAFTSSVPLLPGALVDYPDVLPSRLHPEGLGHGRTLFLVMKNYPCTLRQYLCVNTPSPRLAAMMLLQLLEGVDHLVQQGIAHRDLKSDNILVELDPDGCPWLVIADFGCCLADESIGLQLPFSSWYVDRGGNGCLMAPEVSTARPGPRAVIDYSKADAWAVGAIAYEIFGLVNPFYGQGKAHLESRSYQEAQLPALPESVPPDVRQLVRALLQREASKRPSARVAANVLHLSLWGEHILALKNLKLDKMVGWLLQQSAATLLANRLTEKCCVETKMKMLFLANLECETLCQAALLLCSWRAAL
notes: also called PINK1-myc; not shown: myc tag
binding result: binds

Source: patent US20180112192A1 (NATIONAL TAIWAN UNIVERSITY, published 2018)
